From US20260034194A1, “PHARMACEUTICAL COMPOSITIONS AND METHODS OF TREATING PSP” (priority 2022, published 2026)
Substitutions are numbered along the chain they refer to. Names may count otherwise. Where two headings read alike, the source gives them in different places.

Columns and labels:
[1] = type: binding; details: for Kd: 1 nM F-STX, 25° C., errors S.D.; for ΔΔG: ΔΔG = RT ln(Kd mutant or XSxph/Kd RcSxph), T = 298K, FP with F-STX
[2] = Thermofluor (TF) assay of STX binding; details: 1.1 μM Sxph, 0-20 μM STX; ΔTm at 20 μM toxin
[3] = type: binding; details: ITC, STX, 25° C.
Procedure: . […] In almost all mutants, binding affinity loss correlated with a reduction in enthalpy, consistent with a loss of interactions (Table S2). […]. […] Together, these three assays (FIGS. 1E and G) provide a robust and versatile suite of options for characterizing STX:Sxph interactions.
ITC measurements were performed at 25° C. using a MicroCal PEAQ-ITC calorimeter (Malvern Panalytical). […]. This STX stock was diluted with the SEC buffer to prepare 100 μM or 300 μM STX solutions having a final buffer composition of 135 mM NaCl, 9 mM HEPES, pH 7.4. […]. The calorimetric experiment settings were: reference power, 5 μcal/s; spacing between injections, 150 s; stir speed 750 rpm; and feedback mode, high. Data were analyzed using MicroCal PEAQ-ITC Analysis Software (Malvern Panalytical) using a single binding site model. The heat of dilution from titrations of 100 μM STX in 135 mM NaCl, 9 mM HEPES, pH 7.4 into 135 mM NaCl, 9 mM HEPES, pH 7.4 was subtracted from each experiment to correct the baseline.

[4] = test system: Phyllobates terribilis NaV1.4 (PtNaV1.4); experiment: Two-electrode voltage clamp: Sxph rescue of PtNaV1.4 from STX block in Xenopus oocytes; type: cell-based; details: [Sxph]:[STX] ratio, 100 nM STX, PtNaV1.4 in Xenopus oocytes

B1: OsSxph: Oophaga sylvatica (Little devil poison frog) saxiphilin, SEQ ID NO: 5 (protein, listed as Oophaga sylvatica)
chain: MRMTLQVLLCLCLLVLSSAAPNSRNVRWCVTSDTEEQKCNDLVTSCHVDEILLICVKKSSKEDCVRAISNGEADAISLDSKDVYKASLDPFNLKPIMTEAYSESEQTPCMRHRQSVLGGKKMIIGAFVPKCDEKGNYVPKQCHDSTGFCWCLNENGEEIEGTRTPPGNSGLTCENKANKPPCLKERQKLLSAKPSPAVFVPECDEKGNYRPEQSHVYSWCVDEYGEEVLGSRTFPGKPPKPCEASGETPCIKERNKVLSAAEPLPGAFVPDCDEKGYFSPLQFHGSTGHSWCVTKNGEEIKGTRTRPGQTPPTCDVPAPATLHYAVAVVKKSSSFQLDQLKGKRSCHSAVGEAAGWVAPLNVLLKKKFLLWEEPEQKSTEKVASEIFSASCAAGAQEANLCEQCAGQEDKCTRGPGEPYYGDEGAIRCLRDDKGDVAFVEDTALTGQYSDNFELLCPDNTRRPLSQYKICNFGSVPRHAVVTRSTGDKMKEITEYLLQAQKKECKLFSSTHGKDLLFEDTTSALIALPSGMDTFLFLGPDLFNGMKTLNGAHPPRVKQKIRWCPQNKNEKKKCDDWSSVSGGSIKCTEPSSALECIKMILKDEADAVNLDAEHAYTALKCGLLPSLEEYRNKDDLIVCQIPGAEYSEFGSYRIVALVKKTDKDITWNNLQGKKSCHTHVGDMIGWNIPVYLISKKTKNCDLGSYFSQSCAPGSPIDSNLCKLCIGDPQNTEANTKCSLSDKEAYYGNEGAVRCLVETGDVAFVPHTAVFENTDGKNPALWAKDLKSTDFELLCPDGSRAPVSDYKKCKLSGIANHVTVTRPESVKDVVRITQNQESLYGRTGSQKDIFQMFSSSYGQNLLFNDRTQCLFEFDRMLDRDIMDDYLGKPFHKHLMSDNDCLPKSALATACSFHH
- Kd ([1]; FP): 0.8 ± 0.5 nM
- ΔΔG [1]: -1.32 kcal/mol

B2: NpSxph: Nanorana parkeri (High Himalaya frog) saxiphilin, SEQ ID NO: 2 (protein, listed as Nanorana parkeri)
chain: MALTFHTALYFTIVGLSFAASDARHVQWCTISHLEQKKCNDLVGSCNVPDITLACVYRSSTENCMAAIKDGQADAMFLDSGDVYKASLDHYNLKPIIAEPYSLHRELTKCLKHRQESLGGDKMVKGRYIPQCDEKGNYHPVQCHASTGYCWCVNANGEKIEGTNTTPVQTPPTCPSQVLTKCLKERQEALGGKRIAIGRYIPQCDEQGNYRPMQCHGSTGYCWCVNAIGEKIEGTNTPPGNTQPTCQSHDWDTCHYAVAVVKNSSTFQFGQLKGKRSCHSGLSKTDGWNAPVNVFVEKKLLPWDGLAKGSIERAVSKFFSASCIPGATETNLCKQCIGEEEKKCKSSHDEPYYGDHGAFRCLQEDKGDVAFLKNTALPDEHSGVYELLCPDNTRKPLNKYKECNLGKVPADAVVTRKAGDKTKDINDFLLEAQKKKCKLFGSPHGKDLMFDDSTTHLAPLPSEIDAFFFLGVKWYNAMKALTEDVKLPSKNKVRWCTINKPEMMKCKDWAAVSGGAIACTEASCPEHCVKQILKGEADAVTLDVQYMYMALMCGLLPAVEEYPNKDDFHPCQIPGSTIKDFGTKRAVALVKKSNKDIKWNNLKGKKSCHTHVGDIPGWVIPAGLISNQNDNIDIESFFGESCAPGSDTNSKLCKLCIGDPENPKASTRCSLSDKEAYYGNEGAFRCLVEKGDVAFVPHTVVFANTDGKNPAEWAKDLKSEDFEILCLDGSRAPVTNYRGCNLSGLPPRAIVTREESVSDVVRILINQQSLYGRNGFEKDMFQMFSSAKGQNLLFNDETQCLIEFDRQPKDIMEDYFGVRYYTAVYSASRSAVPSELIPACTFKHC
- ΔTm (STX-induced change of melting temperature) [2]: 3.6 °C
- STX/F-STX affinity compared with RcSxph ([1]; FP): enhanced affinity
- Kd ([1]; FP): 0.5 ± 0.3 nM
- ΔΔG [1]: -1.60 kcal/mol
- Kd [3]: 2.5 ± 0.1 nM
- ΔG [3]: -11.8 ± 0.1 kcal/mol
- ΔH [3]: -18.7 ± 0.2 kcal/mol
- ΔS (cal mol^−1 K^−1) [3]: −23.2 ± 0.8 cal mol^−1 K^−1
- ΔH ([3]; listed as NpSxph WT): -18.7 ± 0.2 kcal/mol

B3: D785N: RcSxph STX binding pocket mutant D785N (protein)
chain: MAPTFQTALFFTIISLSFAAPNAKQVRWCAISDLEQKKCNDLVGSCNVPDITLVCVLRSSTEDCMTAIKDGQADAMFLDSGEVYEASKDPYNLKPIIAEPYSSNRDLQKCLKERQQALAKKMIGHYIPQCDEKGNYQPQQCHGSTGHCWCVNAMGEKISGTNTPPGQTRATCERHELPKCLKERQVALGGDEKVLGRFVPQCDEKGNYEPQQFHGSTGYSWCVNAIGEEIAGTKTPPGKIPATCQKHDLVTTCHYAVAMVKKSSAFQFNQLKGKRSCHSGVSKTDGWKALVTVLVEKKLLSWDGPAKESIQRAMSKFFSVSCIPGATQTNLCKQCKGEEGKNCKNSHDEPYYGNYGAFRCLKEDMGDVAFLRSTALSDEHSEVYELLCPDNTRKPLNKYKECNLGTVPAGTVVTRKISDKTEDINNFLMEAQKRQCKLFSSAHGKDLMFDDSTLQLALLSSEVDAFLYLGVKLFHAMKALTGDAHLPSKNKVRWCTINKLEKMKCDDWSAVSGGAIACTEASCPKGCVKQILKGEADAVKLEVQYMYEALMCGLLPAVEEYHNKDDFGPCKTPGSPYTDFGTLRAVALVKKSNKDINWNNIKGKKSCHTGVGDIAGWVIPVSLIRRQNDNSDIDSFFGESCAPGSDTKSNLCKLCIGDPKNSAANTKCSLSDKEAYYGNQGAFRCLVEKGDVAFVPHTVVFENTDGKNPAVWAKNLKSEDFELLCLDGSRAPVSNYKSCKLSGIPPPAIVTREESISDVVRIVANQQSLYGRKGFEKDMFQLFSSNKGNNLLFNDNTQCLITFNRQPKDIMEDYFGKPYYTTVYGASRSAMSSELISACTIKHC
- ΔTm (STX-induced change of melting temperature) [2]: DTm increases relative to wild-type
- Kd ([1]; FP): 4.4 ± 0.6 nM
- ΔΔG [1]: -0.30 kcal/mol

B4: D794A: RcSxph STX binding pocket mutant D794A (protein)
chain: B3 chain with N804D, D813A
- ΔTm (STX-induced change of melting temperature) [2]: complete loss of the thermal shift
- Kd ([1]; FP): 13200 ± 6870 nM
- ΔΔG [1]: 4.43 kcal/mol

B5: E540D: RcSxph STX binding pocket mutant E540D (protein)
chain: B3 chain with E559D, N804D
- Kd ([1]; FP): 99.9 ± 25.1 nM
- ΔΔG [1]: 1.54 kcal/mol
- Kd [3]: 68.9 ± 10.7 nM
- ΔG [3]: -9.8 ± 0.1 kcal/mol
- ΔH [3]: -16.3 ± 1.7 kcal/mol
- ΔS (cal mol^−1 K^−1) [3]: −21.9 ± 5.7 cal mol^−1 K^−1

B6: F561A: RcSxph STX binding pocket mutant F561A (protein)
chain: B3 chain with F580A, N804D
- Kd ([1]; FP): 16.8 ± 6 nM
- ΔΔG [1]: 0.48 kcal/mol
- Kd [3]: 13.4 ± 1.4 nM
- ΔG [3]: -10.8 ± 0.1 kcal/mol
- ΔH [3]: -12.7 ± 0.2 kcal/mol
- ΔS (cal mol^−1 K^−1) [3]: −6.6 ± 0.9 cal mol^−1 K^−1

B7: Y558I: RcSxph STX binding pocket mutant Y558I (protein)
chain: B3 chain with Y577I, N804D
- Kd ([1]; FP): 1.2 ± 0.2 nM
- ΔΔG [1]: -1.07 kcal/mol
- Kd [3]: 1.1 ± 0.5 nM
- ΔG [3]: -12.2 ± 0.3 kcal/mol
- ΔH [3]: -15.5 ± 0.3 kcal/mol
- ΔS (cal mol^−1 K^−1) [3]: −10.5 ± 0.6 cal mol^−1 K^−1
- Effective Rescue Ratio50 (ERR50) [4]: 0.81±0.01

B8: D794E: RcSxph STX binding pocket mutant D794E (protein)
chain: B3 chain with N804D, D813E
- Kd ([1]; FP): 1070 ± 69.3 nM
- ΔΔG [1]: 2.94 kcal/mol
- Kd [3]: 312.5 ± 2.9 nM
- ΔG [3]: -8.9 ± 0.1 kcal/mol
- ΔH [3]: -11.8 ± 0.0 kcal/mol
- ΔS (cal mol^−1 K^−1) [3]: −8.9 ± 0.1 cal mol^−1 K^−1

B9: Y558A: RcSxph STX binding pocket mutant Y558A (protein)
chain: B3 chain with Y577A, N804D
- Kd ([1]; FP): 1.4 ± 0.3 nM
- ΔΔG [1]: -1.00 kcal/mol
- Kd [3]: 1.2 ± 0.4 nM
- ΔG [3]: -12.2 ± 0.2 kcal/mol
- ΔH [3]: -15.3 ± 0.0 kcal/mol
- ΔS (cal mol^−1 K^−1) [3]: −11.1 ± 1.1 cal mol^−1 K^−1
